Source: IntAct's records for PubMed 9756887

B1: Focal adhesion kinase 1 (Homo sapiens), Q05397 (parent)
chain: MAAAYLDPNLNHTPNSSTKTHLGTGMERSPGAMERVLKVFHYFESNSEPTTWASIIRHGDATDVRGIIQKIVDSHKVKHVACYGFRLSHLRSEEVHWLHVDMGVSSVREKYELAHPPEEWKYELRIRYLPKGFLNQFTEDKPTLNFFYQQVKSDYMLEIADQVDQEIALKLGCLEIRRSYWEMRGNALEKKSNYEVLEKDVGLKRFFPKSLLDSVKAKTLRKLIQQTFRQFANLNREESILKFFEILSPVYRFDKECFKCALGSSWIISVELAIGPEEGISYLTDKGCNPTHLADFTQVQTIQYSNSEDKDRKGMLQLKIAGAPEPLTVTAPSLTIAENMADLIDGYCRLVNGTSQSFIIRPQKEGERALPSIPKLANSEKQGMRTHAVSVSETDDYAEIIDEEDTYTMPSTRDYEIQRERIELGRCIGEGQFGDVHQGIYMSPENPALAVAIKTCKNCTSDSVREKFLQEALTMRQFDHPHIVKLIGVITENPVWIIMELCTLGELRSFLQVRKYSLDLASLILYAYQLSTALAYLESKRFVHRDIAARNVLVSSNDCVKLGDFGLSRYMEDSTYYKASKGKLPIKWMAPESINFRRFTSASDVWMFGVCMWEILMHGVKPFQGVKNNDVIGRIENGERLPMPPNCPPTLYSLMTKCWAYDPSRRPRFTELKAQLSTILEEEKAQQEERMRMESRRQATVSWDSGGSDEAPPKPSRPGYPSPRSSEGFYPSPQHMVQTNHYQVSGYPGSHGITAMAGSIYPGQASLLDQTDSWNHRPQEIAMWQPNVEDSTVLDLRGIGQVLPTHLMEERLIRQQQEMEEDQRWLEKEERFLKPDVRLSRGSIDREDGSLQGPIGNQHIYQPVGKPDPAAPPKKPPRPGAPGHLGSLASLSSPADSYNEGVKLQPQEISPPPTANLDRSNDKVYENVTGLVKAVIEMSSKIQPAPPEEYVPMVKEVGLALRTLLATVDETIPLLPASTHREIEMAQKLLNSDLGELINKMKLAQQYVMTSLQQEYKKQMLTAAHALAVDAKNLLDVIDQARLKMLGQTRPH

Legend:
[1] = variants of: B1; details: with paxi_human PXN
[2] = variants of: B1; details: with tgfi1_mouse Tgfb1i1, Q62219
Sequence of tgfi1_mouse Tgfb1i1, Q62219 (Q62219 whole entry): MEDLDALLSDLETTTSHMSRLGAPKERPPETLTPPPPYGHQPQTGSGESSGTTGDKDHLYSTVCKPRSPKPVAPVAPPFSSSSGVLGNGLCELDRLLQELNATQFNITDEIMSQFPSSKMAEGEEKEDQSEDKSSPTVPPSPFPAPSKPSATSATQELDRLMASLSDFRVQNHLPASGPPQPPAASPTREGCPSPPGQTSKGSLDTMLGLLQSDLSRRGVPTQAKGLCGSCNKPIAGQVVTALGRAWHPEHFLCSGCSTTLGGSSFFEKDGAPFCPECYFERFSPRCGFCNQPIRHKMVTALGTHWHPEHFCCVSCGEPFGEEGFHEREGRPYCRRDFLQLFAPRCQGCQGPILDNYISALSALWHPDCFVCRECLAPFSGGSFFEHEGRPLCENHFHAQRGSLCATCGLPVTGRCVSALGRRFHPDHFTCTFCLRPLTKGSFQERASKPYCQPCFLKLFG

Row | Variant | effect of a mutation on the interaction [1] | effect of a mutation on the interaction [2]
1 | V928G | disrupting interaction | disrupting interaction
2 | L1034S | disrupting interaction | disrupting interaction
